Source: patent publication US20120121633A1 (published 2012)

Target: T1, ovalbumin (UniProt P01012 2-386)
T1 construct: also called control ovalbumin
T1 sequence: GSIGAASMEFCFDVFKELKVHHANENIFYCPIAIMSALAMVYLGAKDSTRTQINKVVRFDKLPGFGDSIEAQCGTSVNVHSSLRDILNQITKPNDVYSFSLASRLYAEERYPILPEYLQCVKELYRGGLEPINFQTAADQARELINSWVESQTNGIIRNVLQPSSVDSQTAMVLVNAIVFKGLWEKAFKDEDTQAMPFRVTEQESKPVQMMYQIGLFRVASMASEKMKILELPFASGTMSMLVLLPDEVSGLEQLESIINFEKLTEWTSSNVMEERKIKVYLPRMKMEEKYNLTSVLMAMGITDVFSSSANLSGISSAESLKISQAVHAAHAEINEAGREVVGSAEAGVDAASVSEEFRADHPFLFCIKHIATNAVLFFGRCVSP
Test: competition ELISA: no inhibition of MAb 2G9 binding to immobilized BSA-E-416-433

B1: IgM clone 2G9 (antibody, V domains shown)
VH: QVQLKQSGPGLVQPSQSLSITCTVSGFSLTSYGVHWVRQSPGKGLEWLGVIWSGGSTDYNAAFISRLSISKDNSKSQVFFKMNSLQANDTAIYYCARNKDYGSSYDYYAMDYWGQGTSVTVSS
VL: DIQMTQTTSSLSASLGDRVTISCRASQDISNYLNWYQQKPDGTVKLLIYYTSRLHSGVPSRFSGSGSGTDYSLTISNLEQEDIATYFCQQGNTLPTFGGGTKLEIKR
notes: also called MAb 2G9; MAb IgM 2G9
B1: no binding.
